Measured values: US20110319324A1

Experiments:
[1] = target: EGF receptor (ErbB1) on HeLa 229 cells (UniProt P00533); assay: cell-based or functional assay
[2] = target: ErbB1 receptor (EGF receptor) on HeLa cells (UniProt P00533); assay: cell-based or functional assay

PEGylated betacellulin produced using the mPEG-SMB-20K reagent, sequence (P35070 other isoform, or with tags, fused parts or gaps limits assumed): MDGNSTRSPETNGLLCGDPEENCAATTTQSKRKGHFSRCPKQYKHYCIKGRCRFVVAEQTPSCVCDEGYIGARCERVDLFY
PEGylated betacellulin produced using the mPEG-ButyrALD-20K reagent, sequence (P35070 other isoform, or with tags, fused parts or gaps limits assumed): as above
Unreacted (SEC fraction of the PEGylation reactions, presumably unreacted betacellulin), sequence (P35070 other isoform, or with tags, fused parts or gaps limits assumed): as above

activity % (phospho-EGFR pY1068 ELISA, HeLa 229 cells) [1] | activity % (phospho-EGFR pY1068 ELISA, HeLa 229 cells; SEC column S200) [1] | betacellulin activity in the phospho-EGFR pY1068 ELISA on HeLa 229 cells ([2]; scale: % reduction against unreacted betacellulin) | ELISA activity is equivalent to [BTC] nM (phospho-EGFR pY1068 ELISA, HeLa 229 cells; 40 nM submitted; SEC column S200) [1] | betacellulin activity in the phospho-EGFR pY1068 ELISA on HeLa 229 cells (fold lower than unreacted betacellulin) [2] | ELISA activity is equivalent to [BTC] nM (phospho-EGFR pY1068 ELISA, HeLa 229 cells; 40 nM submitted; SEC column S70) [1] | Substance
58% | 55% | < 50 |  |  |  | PEGylated betacellulin produced using the mPEG-ButyrALD-20K reagent (from UniProt P35070 32-111) (ligand)
26% | 34% |  | 14 nM | 3 |  | PEGylated betacellulin produced using the mPEG-SMB-20K reagent (from UniProt P35070 32-111) (ligand)
0% |  |  |  |  | 0 nM | Unreacted (SEC fraction of the PEGylation reactions, presumably unreacted betacellulin) (from UniProt P35070 32-111) (ligand)
